# From patent US8652473B2, “Antibodies to EGF receptor epitope peptides and uses thereof” (Ludwig Institute for Cancer Research Ltd., priority 2004, dated 2014)
# Marks after values point to notes of the source that are not given here.
# Legend:
# wt-EGFR = biological target: T1, wt-EGFR (Homo sapiens, UniProt P00533); experiment: Scatchard analysis of 125I-EGF binding, BaF/3 wt-EGFR
# T1 construct: […]; expressed in transfected cells
# Method: (§1) Single point mutations of the wild-type EGFR were generated using a site-directed mutagenesis kit (Stratagene, La Jolla, Calif.). The template for each mutagenesis was the human EGFR cDNA; (24)) containing the leader sequence followed by a FLAG tag coding sequence, in the mammalian expression vector pcDNA3 (Invitrogen, Carlsbad, Calif.) as described in (4). The automated nucleotide sequencing of each construct was performed to confirm the integrity of each EGF receptor mutation. EGFR expression constructs were transiently expressed in 293 cells (American Type Culture Collection, Manassas, Va.) and the presence of receptor protein determined by staining with 528 and M2 antibodies to confirm expression at the cell surface and to ensure protein folding occurred appropriately (data not shown).
# (§2) Wild-type and mutant EGFRs constructs were transfected into the IL-3-dependent murine hemopoietic cell line BaF/3 as described previously (25). Transfected cells were selected in G418 for 10 days. Viable cells were screened for EGFR expression by FACS analysis on a FACStar (Beckton and Dickinson, Franklin Lakes, N.J.) using antibodies to the flag tag (M2: 10 μg/ml in PBS/5% FCS/5 mMEDTA) and/or to the EGFR extracellular domain (mAb528: 10 μg/ml in PBS/5% FCS/5 mMEDTA) followed by Alexa 488-labelled anti-mouse Ig (1:400 final dilution). Background fluorescence was determined by incubating the cells with an irrelevant, class matched primary antibody. Positive pools were sorted for the appropriate level of EGFR expression on a FACS-DIVA (Becton and Dickinson). After final selection, mRNA was isolated from each cell line and all mutations in the EGFR were confirmed by PCR annalysis. All cells were routinely passaged in RPMI/10% FCS/10% WEHI3B conditioned medium (26) and 1.5 mg/ml G418.
# (§3) Murine EGF, purified from mouse submaxillary glands (27), was iodinated using Iodogen (28) to a specific activity of 5-8×10^5 cpm/pmol. Ligand binding to cells expressing the wt or mutant EGFR was determined at room temperature in the presence of the […] (PAO) (29) by cold saturation experiments. Briefly, cells were incubated in PBS/1% BSA/30 μM PAO with or without increasing amounts of unlabelled EGF (20 pM-5.12 nM) and with a constant amount (300 pM) of ^125I EGF. Non-specific binding was determined using a 500-fold excess of unlabelled EGF over ^125I-EGF. All experimental points were prepared in triplicate. At the end of the incubation, the cells were pelleted and washed twice in ice-cold PBS before transferring to fresh tubes for counting in a Wallac WIZARD γ-counter (PerkinElmer, Boston, Mass.). Scatchard plots and estimates of ligand binding affinities and receptor numbers were obtained using the Radlig program (BioSoft, Cambridge, UK).
# Y^246F EGFR = biological target: T2, Y^246F EGFR (Homo sapiens, UniProt P00533, Y270F); experiment: Scatchard analysis of 125I-EGF binding, BaF/3 Y246F; conditions: BaF/3 Y^246F
# T2 construct: expressed in transfected cells
# Method: as §1
# as §2, with “All cells were routinely passaged in RPMI/10% FCS/10% WEHI3B conditioned medium (26) and 1.5 mg/ml G418.” left out
# (§4) Murine EGF, purified from mouse submaxillary glands (27), was iodinated using Iodogen (28) to a specific activity of 5-8×10^5 cpm/pmol. Ligand binding to cells expressing the wt or mutant EGFR was determined at room temperature in the presence of the […] […] Non-specific binding was determined using a 500-fold excess of unlabelled EGF over ^125I-EGF. […]
# Y^246W EGFR = biological target: T3, Y^246W EGFR (Homo sapiens, UniProt P00533, Y270W); experiment: Scatchard analysis of 125I-EGF binding, BaF/3 Y246W; conditions: BaF/3 Y^246W
# T3 construct: expressed in transfected cells
# Method: as §1
# as §2, with “All cells were routinely passaged in RPMI/10% FCS/10% WEHI3B conditioned medium (26) and 1.5 mg/ml G418.” left out
# as §4
# Y^246D EGFR = biological target: T4, Y^246D EGFR (Homo sapiens, UniProt P00533, Y270D); experiment: Scatchard analysis of 125I-EGF binding, BaF/3 Y246D; conditions: BaF/3 Y^246D
# T4 construct: expressed in transfected cells
# Method: as §1
# as §2, with “All cells were routinely passaged in RPMI/10% FCS/10% WEHI3B conditioned medium (26) and 1.5 mg/ml G418.” left out
# as §4
# V^583D EGFR = biological target: T5, V^583D EGFR (Homo sapiens, UniProt P00533, V607D); experiment: Scatchard analysis of 125I-EGF binding, BaF/3 V583D; conditions: BaF/3 V^583D
# T5 construct: expressed in transfected cells
# Method: as §1, §2, §3
# D^563H EGFR = biological target: T6, D^563H EGFR (Homo sapiens, UniProt P00533, D587H); experiment: Scatchard analysis of 125I-EGF binding, BaF/3 D563H; conditions: BaF/3 D^563H
# T6 construct: expressed in transfected cells
# Method: as §1, §2, §3
# E^578C EGFR = biological target: T7, E^578C EGFR (Homo sapiens, UniProt P00533, E602C); experiment: Scatchard analysis of 125I-EGF binding, BaF/3 E578C; conditions: BaF/3 E^578C
# T7 construct: expressed in transfected cells
# Method: as §1
# (§5) Wild-type and mutant EGFRs constructs were transfected into the IL-3-dependent murine hemopoietic cell line BaF/3 as described previously (25). […] Background fluorescence was determined by incubating the cells with an irrelevant, class matched primary antibody. […]
# as §4
# L^245C/E^578C EGFR = biological target: T8, L^245C/E^578C EGFR (Homo sapiens, UniProt P00533, E602C/L269C); experiment: Scatchard analysis of 125I-EGF binding, BaF/3 L245C/E578C; conditions: BaF/3 L^245C/E^578C; less than 10% of number by FACS or immunoblotting
# T8 construct: expressed in transfected cells
# Method: as §1, §5, §4
# [1] = high affinity sites, listed as 125I-EGF
substance,measurement,setting,value
"EGF: Murine EGF purified from mouse submaxillary glands, iodinated for binding; EGFR ligand",R/cell (from Bmax),wt-EGFR,3.4 +/− 0.7 R/cell × 10^−4
same,[EGF] at which 500R/cell are occupied,wt-EGFR; calculated from Kd and Bmax,~15 pM
same,% of sites (Kd1),wt-EGFR; [1],2.6 +/− 0.4%
same,% of sites (Kd2),wt-EGFR; low affinity sites,97.5 +/− 0.49%
same,% of sites (Kd2),Y^246F EGFR,(100) %
same,R/cell (from Bmax),Y^246F EGFR,3.0 +/− 0.2 R/cell × 10^−4
same,[EGF] at which 500R/cell are occupied,Y^246F EGFR; calculated from Kd and Bmax,30 pM
same,% of sites (Kd2),Y^246W EGFR,(100) %
same,R/cell (from Bmax),Y^246W EGFR,2.9 +/− 0.2 R/cell × 10^−4
same,[EGF] at which 500R/cell are occupied,Y^246W EGFR; calculated from Kd and Bmax,~60 pM
same,% of sites (Kd2),Y^246D EGFR,(100) %
same,R/cell (from Bmax),Y^246D EGFR,1.2 +/− 0.1 R/cell × 10^−4
same,[EGF] at which 500R/cell are occupied,Y^246D EGFR; calculated from Kd and Bmax,400 pM
same,R/cell (from Bmax),V^583D EGFR,3.8 +/− 0.71 R/cell × 10^−4
same,[EGF] at which 500R/cell are occupied,V^583D EGFR; calculated from Kd and Bmax,<1 pM
same,% of sites (Kd1),V^583D EGFR; [1],12.6 +/− 4%
same,% of sites (Kd2),V^583D EGFR; low affinity sites,90.8 +/− 1.9%
same,R/cell (from Bmax),D^563H EGFR,2.3 +/− 0.8 R/cell × 10^−4
same,[EGF] at which 500R/cell are occupied,D^563H EGFR; calculated from Kd and Bmax,8 pM
same,% of sites (Kd1),D^563H EGFR; high affinity sites,4.4 +/− 0.7) %
same,% of sites (Kd2),D^563H EGFR; low affinity sites,96.4 +/− 0.7%
same,R/cell (from Bmax),E^578C EGFR,3.45 +/− 0.12 R/cell × 10^−4
same,[EGF] at which 500R/cell are occupied,E^578C EGFR; calculated from Kd and Bmax,~80 pM
same,R/cell (from Bmax),L^245C/E^578C EGFR,0.37 +/− 0.002^b R/cell × 10^−4
